Test system: peptide library, one residue held at a place counted from the S/T acceptor
Assay: relative phosphorylation of the sub-library (ratio to the mean residue at this position); higher = residue favoured
Summary of the method: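 Relative sub-library phosphorylation is a ratio to the mean residue at the same position. Purified recombinant kinases were incubated under kinase-specific conditions with biotinylated degenerate peptide sub-libraries, each fixing one residue at one position around a central Ser/Thr, using 50 μM peptide and 50 μM ATP spiked with γ-32P-ATP for 90 min. Spots captured on streptavidin membranes were phosphorimaged and quantified by densitometry.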

Sequence of RPS6KA1, construct: Full length, human (Q15418 whole entry, looked up): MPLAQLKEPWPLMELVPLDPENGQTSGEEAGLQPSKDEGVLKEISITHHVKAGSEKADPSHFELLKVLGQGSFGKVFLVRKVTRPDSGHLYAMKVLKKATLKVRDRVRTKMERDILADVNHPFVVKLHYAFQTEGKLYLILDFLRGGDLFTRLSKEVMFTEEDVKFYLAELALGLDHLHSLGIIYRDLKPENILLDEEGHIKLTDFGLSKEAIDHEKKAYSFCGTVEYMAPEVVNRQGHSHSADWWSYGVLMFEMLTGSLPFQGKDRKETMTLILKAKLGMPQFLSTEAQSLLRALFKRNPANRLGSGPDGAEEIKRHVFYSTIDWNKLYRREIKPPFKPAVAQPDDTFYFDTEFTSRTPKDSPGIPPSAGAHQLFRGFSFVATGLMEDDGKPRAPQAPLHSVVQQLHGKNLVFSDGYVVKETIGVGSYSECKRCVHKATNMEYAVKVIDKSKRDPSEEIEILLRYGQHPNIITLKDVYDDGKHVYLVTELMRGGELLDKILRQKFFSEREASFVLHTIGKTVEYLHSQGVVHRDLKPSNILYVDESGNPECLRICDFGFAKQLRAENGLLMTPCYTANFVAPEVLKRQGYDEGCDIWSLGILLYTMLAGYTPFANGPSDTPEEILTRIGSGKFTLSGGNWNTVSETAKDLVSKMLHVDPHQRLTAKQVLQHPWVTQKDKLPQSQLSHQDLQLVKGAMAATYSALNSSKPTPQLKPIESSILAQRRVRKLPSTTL
Sequence of RPS6KB1, construct: aa1-421, human (P23443 1-421, looked up): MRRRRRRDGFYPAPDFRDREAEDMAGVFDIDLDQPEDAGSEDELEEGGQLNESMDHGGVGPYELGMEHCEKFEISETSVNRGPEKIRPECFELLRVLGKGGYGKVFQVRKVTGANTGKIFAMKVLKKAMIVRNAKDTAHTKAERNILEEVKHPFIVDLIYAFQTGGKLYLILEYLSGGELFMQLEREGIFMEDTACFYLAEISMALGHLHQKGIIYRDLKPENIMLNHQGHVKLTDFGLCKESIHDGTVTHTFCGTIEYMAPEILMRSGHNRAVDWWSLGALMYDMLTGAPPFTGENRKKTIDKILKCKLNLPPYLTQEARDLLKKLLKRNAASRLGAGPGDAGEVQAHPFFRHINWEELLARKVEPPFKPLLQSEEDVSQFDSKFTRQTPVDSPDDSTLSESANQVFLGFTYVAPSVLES

RPS6KA1, construct: Full length, human (from UniProt Q15418)
relative phosphorylation
Settings | at +1 | at +2 | at +3 | at +4 | at -1 | at -2 | at -3 | at -4 | at -5
A fixed | 0.899 | 1.02 | 0.983 | 0.839 | 0.926 | 0.75 | 0.694 | 1.2 | 0.916
D fixed | 0.459 | 0.887 | 1.1 | 1.25 | 0.593 | 0.724 | 0.524 | 0.574 | 0.439
E fixed | 0.784 | 0.691 | 1.13 | 1.03 | 0.408 | 0.614 | 0.424 | 0.703 | 0.364
F fixed | 1.09 | 0.767 | 1 | 0.816 | 0.796 | 0.684 | 0.365 | 0.817 | 0.822
G fixed | 0.654 | 0.939 | 1.08 | 0.985 | 1.19 | 1.2 | 0.737 | 1.22 | 0.977
H fixed | 1.15 | 1.55 | 1.24 | 1.05 | 1.06 | 1.14 | 0.549 | 0.857 | 0.935
I fixed | 1.3 | 1.05 | 0.853 | 0.76 | 0.404 | 0.546 | 0.331 | 0.931 | 0.849
K fixed | 0.881 | 0.77 | 0.686 | 1.14 | 1.21 | 1.86 | 1.32 | 1.63 | 1.84
L fixed | 0.969 | 0.816 | 1.05 | 0.785 | 0.942 | 1.14 | 0.388 | 0.895 | 1.18
M fixed | 1.1 | 0.774 | 0.93 | 0.791 | 1.04 | 0.897 | 0.487 | 1.05 | 0.72
N fixed | 1.02 | 1.04 | 0.822 | 1.01 | 1.14 | 0.732 | 0.506 | 0.722 | 0.67
P fixed | 0.625 | 0.615 | 0.914 | 1.47 | 2.71 | 0.581 | 0.76 | 0.979 | 0.993
Q fixed | 1.39 | 0.817 | 0.94 | 1.21 | 0.997 | 1.15 | 0.538 | 0.83 | 0.696
R fixed | 1.07 | 1.2 | 0.875 | 0.914 | 1.25 | 3.29 | 8.19 | 2.05 | 2.91
V fixed | 1.62 | 1.14 | 0.801 | 0.819 | 0.592 | 0.441 | 0.315 | 0.79 | 0.75
W fixed | 0.884 | 1.16 | 1.34 | 1.16 | 0.739 | 0.597 | 0.482 | 0.978 | 1.1
Y fixed | 1.1 | 1.77 | 1.26 | 0.969 | 1.01 | 0.649 | 0.39 | 0.779 | 0.841
pThr fixed | 1.51 | 0.917 | 1.17 | 1.95 | 0.284 | 0.293 | 0.348 | 0.573 | 0.527
pTyr fixed | 1.32 | 0.957 | 1.59 | 1.17 | 0.522 | 0.33 | 0.332 | 0.413 | 0.526

RPS6KB1, construct: aa1-421, human (from UniProt P23443)
relative phosphorylation
Settings | at +1 | at +2 | at +3 | at +4 | at -1 | at -2 | at -3 | at -4 | at -5
A fixed | 0.718 | 0.952 | 0.865 | 0.956 | 0.716 | 0.67 | 0.516 | 0.839 | 0.539
D fixed | 0.458 | 0.433 | 0.664 | 0.933 | 0.802 | 0.231 | 0.188 | 0.433 | 0.362
E fixed | 0.849 | 0.268 | 0.694 | 0.703 | 0.577 | 0.25 | 0.194 | 0.694 | 0.323
F fixed | 2.01 | 0.855 | 1.22 | 0.909 | 0.878 | 0.823 | 0.421 | 0.73 | 0.721
G fixed | 0.804 | 1.68 | 1.13 | 1.18 | 0.562 | 0.48 | 0.318 | 0.724 | 0.608
H fixed | 1.19 | 1.65 | 1.45 | 1.38 | 1.28 | 1.14 | 0.949 | 1.11 | 1.21
I fixed | 1.07 | 0.942 | 0.914 | 0.909 | 0.768 | 0.741 | 0.37 | 0.708 | 0.593
K fixed | 0.932 | 0.794 | 0.982 | 0.943 | 1.35 | 2.56 | 1.45 | 2.08 | 1.92
L fixed | 1.18 | 0.933 | 0.976 | 0.868 | 1.12 | 1.24 | 0.426 | 0.802 | 0.714
M fixed | 1.39 | 1 | 0.794 | 0.863 | 1.19 | 0.87 | 0.452 | 0.947 | 0.529
N fixed | 0.746 | 1.41 | 0.87 | 1.07 | 1.31 | 0.763 | 0.41 | 0.904 | 0.66
P fixed | 0.328 | 0.816 | 0.955 | 1.26 | 1.2 | 0.289 | 0.297 | 0.794 | 0.645
Q fixed | 0.717 | 0.707 | 1 | 0.966 | 0.957 | 0.841 | 0.541 | 1.05 | 0.934
R fixed | 0.944 | 1.61 | 1.08 | 0.784 | 1.3 | 3.7 | 8.82 | 2.34 | 5.28
V fixed | 1.19 | 1.06 | 0.772 | 0.926 | 1.01 | 0.596 | 0.362 | 1.01 | 0.562
W fixed | 1.42 | 0.935 | 1.43 | 1.26 | 0.8 | 0.751 | 0.658 | 0.989 | 0.738
Y fixed | 1.05 | 0.955 | 1.21 | 1.09 | 1.17 | 1.05 | 0.624 | 0.849 | 0.661
pThr fixed | 0.905 | 0.467 | 0.716 | 1.36 | 0.384 | 0.275 | 0.231 | 0.55 | 0.429
pTyr fixed | 1.39 | 0.696 | 0.954 | 1.14 | 1.77 | 0.451 | 0.348 | 0.598 | 0.579
